From US20090060915A1

What was measured:
Test in all cases: cell-based or functional assay
[1] = molecular target: endogenous angiomotin of bovine capillary endothelial (BCE) cells (p80- and p130-isoforms) (bovine)
[2] = molecular target: p130-angiomotin (Homo sapiens (Human)) (UniProt Q4VCS5)
[3] = molecular target: p80-angiomotin (Homo sapiens (Human)) (UniProt Q4VCS5)

Human angiostatin (kringle 1-4) (from UniProt P00747 99-459) (ligand)
decrease in bFGF-stimulated migration of hTERT+-BCE cells, migration chamber assay [1]: 85% | decrease in bFGF-stimulated migration of MAE cells expressing p130-angiomotin, Boyden chamber, angiostatin 5 ug/ml [2]: 160% | decrease in motility of CHO cells expressing p130-angiomotin, Boyden chamber [2]: 50% | invasion of Matrigel by human cytotrophoblasts, angiostatin 5 ug/ml [2]: 3 fold | decrease in bFGF-stimulated migration of MAE cells expressing p80-angiomotin, Boyden chamber, angiostatin 5 ug/ml [3]: 175% | decrease in motility of CHO cells expressing p80-angiomotin, Boyden chamber [3]: 50% | invasion of Matrigel by human cytotrophoblasts, angiostatin 5 ug/ml [3]: 3 fold
